# Assay: soluble on expression in E. coli; label from the status in PepcDB or PDB records
row,Sequence,soluble on expression in E. coli
1,MAHHHHHHMRFLSSSAVSPSPIRPSTGGASGKERLHHELPILHWRAGGGGEVGGGQHDDADSSDEYNEAHLCCDDWASSPAEPAAAAATFQTRQSDTPDGLHVDSDDDDNADDDGGEDTAGQTWIEEALRRAEAKCAVLRLELTFATERAVAAEANARARERECAELHALASRMQAQLAAAQMTAEWATANTRADAEVQVAACTASLDDIAASAFSSPNSPNRLGTTSLSMRKGTALADGTVWRRRHDIVAQELATLKVSMAEQLAVLDRLGMQPPFSEELVCAAERRLRHVKVAHAPGTAMKASQPDATIPGTPHTLTRSTCVDSAASADLSAGGASVTATTKKIQVRNGNKIAALLNLRKQNRHQEKPAAAAADAMATGVTDSATTPSTSAPPVKRDGSEDCRTTLDAKENHYVV,not soluble
2,MKKEHSPKNKVRHFASVEHLNPEAVAAFVDNELSPAAAHRAKIHLVHCAECREEIHRQRRAADRLRDGNNSDMRPSSDLIAKLQSIAACCPDGPTAEEVPSSPQSLLDKLDGVARNIYKTTKTLREARNEALRQYDR,not soluble
3,MVKAISTEKDLLLKVDKSFPWETFRSKLKSLYSKKPKWNVISLLKVLLIKLIFDISWNNLEGEIRDSKMFMDFLGGKIPPKSTVFSFYKKLQQTVIQEGETMRTTLMDELNKALDKAISEYREKGFELEVGREKKTEKVSKGTYPPKIDTFLPVKPYPREKRSLSKTGSLEHHHHHH,soluble
4,MFENLTDRLSKTLKNISGKGRLTEDNIKDTLREVRMALLEADVALPVVRDFVNRVKEGAVGVEVSKSLTPGQEFIKIVRQQLEAVMGESNEALNLAAQPPAVILMAGLQGAGKTTSVGKLSKLLKERDKKKVLVVSADVYRPAAIKQLETLANDLGVDFFPSTPDQKPIDIANAAIDHAKKKFYDVLIVDTAGRLAIDEQMMAEIQALHKAINPVETLFVVDAMTGQDAADTAKAFGDALPLTGVILTKVDGDARGGAALSVRHITGKPIKFIGVGEKTDALEPFHPDRIASRILGMGDVLSLIEDLQRNVDQEKAEKLAKKFKEKKGFDLEDFREQLGQMKNMGGMMGMLDKLPGMSQLPADMKDKVDDRVFKQMEAIINSMTMKERQNPDLIKGSRKKRIAAGSGTQVQDVNRLLKQFTQMQKMMKKMQQGGMKGMMRNMQGLMGGGGRGGFGGGFFGR,not soluble
5,HPGEVIVLIHGLMRTYVSMKPLKAYLEAQGYQVYLYKYPSARYNIQEHGVYLNQFITTILENNPAIKIHFVTHSLGGIIVREALSKLSQKQLKHVGYLIMLAPPNQGSKLAKFSIKLFPMISYFIKPLAELSSEQTSYVHRVPVPDIKMGIIAGRFDAKVPPDYARLQGQTEQVIINNTHTFIMYDSKVKKLVLSFLEKGKFE,not soluble
6,MIHYRMDQPDRVRCSVCGGIADEVDETYPEEGDFILVIYRCRDCGHLEKRQYGKPVKIID,not soluble
7,MGSDKIHHHHHHMIHIRPFQHQDADYRVMADVYNALAPDAPLSAIEWRIRDEIHNPNLPLCRWIGELDGRAGGYAEYYQPTWCADPTHLEMQIVVHPAVQGRGLGRALWQHLQMAWQPLRPHHIWLKVREDWQAGLMFAGRRQFHESRRVWVSRLDLATFDPQPFSGSIERVTAQQIELISFAALATADQGFWQQLYEFERQTTGDVPSPFPVTMPTYDQWIKLYQPDHGALWEGSFAAVHEGQIVGISTLETIDDSTDVEVGFTAVRRDYRGRGIALALKLCTIAYAGAQGLSGIRTDNDSTNLAMWHINERLGFRRGPVWIVLHRCEQNEEVT,not soluble
8,MTPWLTVVGIGEDGFSGLGKQARRALLGAGRVFGSPRQLALLPRCVTAEQLAWPSPFSLAPVLALRGEPVCVLASGDPMFYGVGASLARQVPAAEMRVLSLPSSCALAAARLGWPLQDLQVVSLVARPLAALNAHLHSGMRLLVLSNDGDSPAAIAAQLRGQGFGPSRLQVFEHLGGVDERALAGTAQDWPHTGIAALNLVAIECLATPDAPRLHRLAGLPDAAYRHDGQLTKRDVRAITLARLAPQPGELLWDVGAGCGSIGIEWMRAHPACRALAIEADEGRQGLIEHNRDALGVPGLQLVRGKAPAALQGLEQPDAIFIGGGVTRTGVLDLCWASLRPGGRLVANAVTLQSELALAHFREQHGGELTRIHVAHAQPLGAFDTWRQALPITLLEVLKPADA,not soluble
9,LNHIYNVAFWAEEIGKIVGLDEKRLAKLYLAGLLHDIGKVYIDERILNKEGRLTLQEYQEMKKHVDYSYNMVKDLMIWDIEDDVALWVVQHHEKFDGSGYPFGLKEEEITPEGRILKIADTLDA,soluble
10,MGSDKIHHHHHHMFYIMPAWENEVSELNRDLLKNLTNVFVGGKKSVKLAVLNFLPNLRYLLHVNGLTNYEYWNIWDAILGIERVDGMPLGPEALDLPQGVRLINAMTSMDAYEGSKLYARIIRSSEGYLSEVQFMNPQNRHTDVYDDRGFKVCTNYYENEEVVRQEWFNECNQLIVRYEPKAKVAVQILGNYSNFEKRQYKTLNELLMEFVNSFFEEHFDPTQDRLIASTNLKIRPLMVEIQNRLPVTYLLDHLGPMDTTTVETLQPQIQGAFKFVVPNYVIFQQIKSSVAEPAQKVLKLGYPYGTENRLGNSNEESKMFIYWHIDESTNDTTCSQFAEKLIDYSLEHENVGLQVAALNDRQANLVFNYLCQALKNKYTFLDLEQDQDLIWKIVFGREDTDAIGKLLMQLKFRLGMNLKHDPETNPQKLADSARFKKINWKKVMEDITETIIRVNSRDNEIYRNLARSRVLVDVGSPYNTRMQFNAISAGIPQIVNVDSPFIINRKNGWIINEKQSLSQGLDFYLQELGNWNKSLVATTKYMEQLTLKRQADWWERRTKYEK,not soluble
11,MGSDKIHHHHHHMYETFMKRAIELAKKGLGRVNPNPPVGAVVVKDGRIIAEGFHPYFGGPHAERMAIESARKKGEDLRGATLIVTLEPCDHHGKTPPCTDLIIESGIKTVVIGTRDPNPVSGNGVEKFRNHGIEVIEGVLEEEVKKLCEFFITYVTKKRPFVALKYASTLDGKIADHRGDSKWITDKLRFKVHEMRNIYSAVLVGAGTVLKDNPQLTCRLKEGRNPVRVILDRKGVLSGKVFRVFEENARVIVFTESEEAEYPPHVEKALSDCSVESILRNLYERDIDSVLVEGGSKVFSEFLDHADVVFGFYSTKIFGKGLDVFSGYLSDVSVPPKFKVVNVEFSDSEFLVEMRPCSRE,soluble
12,MAHHHHHHMTTVPESTCAASCESQLCLLCDTPYTSWTEHSREHAHVARSVVCRFFVMPERSESIMQHLERHIALDLKEVDALTDRKVGRRRERLLAGLVHLVEKGVLRDSIPTLPFSTPARGGTDKGRGAGISGVTLGVDADLFLNRVLVGEAFLRREVLDRCARLMPSLTAMELNSVVTYLTSTRQMARIFDELSLIELLVTRSGLESAPANVNTATAAATAAGRAAESASVEPLSETAAAPLPDSDASTESPPAHQPCSSTLAASLPSPPRWSLSREDKVYIMCACLGELHRFHEQERPRSVISKAAADAIVLNVLAGHGRENLVSELVHETLQRIVDEGTVVWRQHQEDVKRRGRSSEANVAGAARISARRAPRTDSTVSEDLCYVRTAPLPSAPSPRPASQVTLDSAAAEQLVSSYLPFNDVDQLSGAETDAVKATAEAPSRSSPDRTCTTSPECISVLHTSEKDWGPLTAELRKRAEDWNRLPFVPSTPELKASKMPR,not soluble
13,MRATVSGKTTTILPLLSKLIVIVIKSTSIHCSTLTSSGLFDSTAPRVFKNLVNYGGDMWFYMKPYPSNGKSGSQQMENVYQGLKSAQIKFSHITQHGISVQFFTSQSNWHSITNNNRSFSSYKLWWAHTNGAGNGGATSPNFEGFVSFGGWTSSSLVGKEYARQVQECGVTVNKYVYVK,not soluble
14,DLAKEGKLHSIVDSLFYSRLYKKEKRVYGDTDYDRFDFFTNRFLQSFNKAAFDDFFSSRVEYPNQIKILFQMFFTKMEKLKTD,not soluble
15,MTVRDKREKMTATREEFADAQQEFAAYAADFAADIETKRDVSSLLDAIDALRAEIEETGDAFDAYNQEFAAEVSHLQTEIGEQREALREMRDIFDAYAETFESDVEAKQDVSDLLAAIEDLRAEMDTTHEAFDAYTNEFVTDVAALRDVSDLLAAIEELQLEFGAVQAEFDDYTDDFDADIERFRNAVAEQRDAVAEYREEFHGVEVQAMLNAIADFQQEIDDFRAEFETTEESFDAFARDFYGAEASDSGDALETEAEAPDAGVPEQPAEESVETENEEAELEVVETETDTEDTDTGSIKEVEEELIIEEEIDTEDTREAENAVEEDEETEADEDAPEGMIQCLVCGEYYQAITEPHLQTHDMTIQEYREEYGEDMPLRPDDKA,not soluble
16,MVHGKLKEAAEVTGSVSLEALEEVQVGENIEVGVGIDELVNAEAFAYDFTLNYDENAFEYVEAISDDGVFVNAKKIEDGKVRVLVSSLTGEPLPAKEVLAKVVLRAEAKTEGSNLSVTNSSVGDGEGLVHEIAGTEKTVNIIEGTSPEIVVNPVRDFKASEINKKNVTVTWTEPETTEGLEGYILYKDGKKVAEIGKDETSYTFKKLNRHTIYNFKIAAKYSNGEVSSKESLTLRTAR,soluble
17,MLKLASSLRTGLISRSIRTLAPTVNPAEQQQVQAVLPDKLYSSVEIEYRGHDKAVLKSYTSFLQQVCQHLEIPQGRLEVLPYIRWVQPALRSKFVHKKYKLHYETRTHISKLEILNVTGSTASTFLEYIQRNIPEGVGMRVGFTELQPLPLTIQKN,not soluble
18,MAHHHHHHMGSLSSSSSSSAATGAGAAASQTDAQEVTPVDSLWSPHDVCEAAVDYVLRHVNTVQYMIQSIEEITGKPFLRDRIKCLPAVPRDEASRNPTMGLTPDRVFAGYMWRSARSDCQAKDVVLLEDHIARLFNTKHATAFLKKDKGVNERAASPPTTSDAAATAASSLSTTATQSQLQRLLAGSQLPVLEQVERNIRHELVHAFDDARGAIESSDCVHQACSEIRAARLSGDCFVGQEMRKGRFNFFEGGQKCVRRRAVMAVDRNPVCRGFSERAVDTVFQKCYSDYEPFAAPIYALGSYGDSQFANGTLKL,not soluble
19,GKVFERCELARTLKRLGMDGYRGISLANWMCLAKWESGYNTRATNYNAGDRSTDYGIFQINSRYWCNDGKTPGAVNACHLSCSALLQDNIADAVACAKRVVRDPQGIRAWVAWRNRCQNRDVRQYVQGCGV,soluble
20,APKNGTVQEKKFFSKELNEEMTLLVYLPSNYSPLYKYHVIIAQDGHDYFRLGRIGRQVEELLSKREIDRSIIIGVPYKDVKERRNTYHPEGSKFSAYKRFIAHELVPFADDEYPTYQIGYGRTLIGDSLGATVSLMTALDYPNMFGNIIMQSPYVDKHVLEAVKQSDDIKHLSIYHQIGTKETDVHTTDGNILDFTEPNRELKQLLEKKLSDYDFEPFDGDHKWTYWQPLITPALKKML,not soluble
21,MVQEANVRDKMRGTGVSVTRSGDNIILNMPNNVTFDSSSATLKPAGANTLTGVAMVLKEYPKTAVNVIGYTDSTGGHDLNMRLSQQRADSVASALITQGVDASRIRTQGLGPANPIASNSTAEGKAQNRRVEITLSPLLEHHHHHH,not soluble
22,MSLKINIKDDAQAYLADKIPAGSQVILTTDDGSNKYSSLGGSCAIGNKFQLVILKAADPDYTTPLENNAGYVMHVAPADEAYLGNGLNISRWHNALALKDDSGMLDGALAVVDWRDVSPETEAERREKMQTIGTKICEGHHHHHH,soluble
23,MDLSTIKVFEQKLELHREMPMKVVKKELHFSTKGEIDLVDITREVELFVAESGISKGQVLIFVPGATGAVVAIEHEEGLLEDFKKILKEIVPKEKPYLHNRFDDNAHSHIRATLLGPSLVFPIVDGELVRGTWQQIFFVELDTRPRKRRILLQAIGE,soluble

# Source: the DeepSol protein solubility set
